For test [1], the target named is mCherry-LacRepressor-NLS-PP1γ (UniProt P36873). Description: two-hybrid.
The target of test [2] is His6-tagged PP1α_(7–330) Q20R (UniProt P62136). Kind of test: SPR. For orientation: SPR reads the build-up and loss of mass on a sensor chip optically.
In test [3] the target is GFP-RRP1B_(S702D) (human) (UniProt Q14684). Kind of test: co-IP.
The next test concerns the target GFP-RRP1B_(RAxA) (human) (UniProt Q14684). Kind of test: co-IP.
A further test concerns the target His6-tagged PP1γ_(7–308) (UniProt P36873 7-308). Description: ITC. (In general: Isothermal titration calorimetry measures the heat released or taken up as one component is titrated into another.)
Test [4] deals with His6-tagged PP1α_(7–330) Q20R (UniProt P62136 7-330, Q20R). Description: SPR.
For another test, the target named is His6-tagged PP1α_(7–330) (UniProt P62136 7-330). Kind of test: ITC.
The target in the next test is His6-tagged PP1γ_(7–323) (UniProt P36873 7-323). Description: ITC.
Sequence of His6-tagged PP1γ_(7–323) (P36873 7-323): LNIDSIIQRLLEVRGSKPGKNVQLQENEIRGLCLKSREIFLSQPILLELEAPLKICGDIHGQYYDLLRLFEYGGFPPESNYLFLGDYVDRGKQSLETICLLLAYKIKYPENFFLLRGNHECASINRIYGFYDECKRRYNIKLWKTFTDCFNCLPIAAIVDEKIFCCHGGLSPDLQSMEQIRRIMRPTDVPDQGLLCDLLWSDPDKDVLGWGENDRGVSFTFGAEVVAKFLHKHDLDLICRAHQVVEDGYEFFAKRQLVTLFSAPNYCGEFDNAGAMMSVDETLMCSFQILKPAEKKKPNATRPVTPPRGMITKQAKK

Sequence of His6-tagged PP1α_(7–330) Q20R (UniProt P62136 7-330, Q20R) (P62136 7-330 Q20R): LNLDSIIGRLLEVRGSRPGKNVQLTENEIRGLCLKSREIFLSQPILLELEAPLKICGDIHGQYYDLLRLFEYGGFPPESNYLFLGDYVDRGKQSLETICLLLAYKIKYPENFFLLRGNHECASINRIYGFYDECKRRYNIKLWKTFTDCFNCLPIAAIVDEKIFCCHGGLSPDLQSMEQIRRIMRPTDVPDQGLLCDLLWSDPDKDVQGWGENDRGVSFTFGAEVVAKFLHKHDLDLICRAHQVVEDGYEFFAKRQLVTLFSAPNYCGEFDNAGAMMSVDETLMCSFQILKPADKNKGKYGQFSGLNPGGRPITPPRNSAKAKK
Sequence of His6-tagged PP1α_(7–330) Q20R (UniProt P62136) (P62136 7-330 Q20R): as above
Sequence of His6-tagged PP1γ_(7–308) (P36873 7-308): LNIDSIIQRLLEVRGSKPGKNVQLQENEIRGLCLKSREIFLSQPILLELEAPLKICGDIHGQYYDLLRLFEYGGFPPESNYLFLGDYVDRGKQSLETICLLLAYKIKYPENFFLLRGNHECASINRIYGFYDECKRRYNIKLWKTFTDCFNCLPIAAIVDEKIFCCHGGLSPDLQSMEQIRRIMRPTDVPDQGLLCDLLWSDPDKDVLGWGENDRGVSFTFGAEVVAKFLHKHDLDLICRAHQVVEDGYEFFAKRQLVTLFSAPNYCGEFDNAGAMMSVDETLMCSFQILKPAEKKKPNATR
Sequence of mCherry-LacRepressor-NLS-PP1γ (P36873 whole entry): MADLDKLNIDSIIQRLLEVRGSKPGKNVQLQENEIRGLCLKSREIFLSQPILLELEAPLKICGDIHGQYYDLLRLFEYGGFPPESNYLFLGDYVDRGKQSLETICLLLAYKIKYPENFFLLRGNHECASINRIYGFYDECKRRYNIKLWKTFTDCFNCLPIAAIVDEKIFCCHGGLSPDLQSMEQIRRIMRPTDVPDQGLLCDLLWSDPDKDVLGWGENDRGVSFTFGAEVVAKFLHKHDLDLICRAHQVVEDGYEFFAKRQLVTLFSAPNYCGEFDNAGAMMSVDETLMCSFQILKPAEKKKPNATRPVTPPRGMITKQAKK
Sequence of His6-tagged PP1α_(7–330) (P62136 7-330): as the sequence (P62136 7-330 Q20R) above, with R14Q counted along it

Regarding “GFP-RRP1B_(S702D) (from UniProt Q14684) (natural protein)”, the percent of cells with accumulation at the gene locus in test [1] was 7%.
“RRP1B_(682–727) S702D (from UniProt Q14684) (domain or fragment)”: the Kd (commonly the concentration at which binding is half-saturated) in test [2] amounted to 329 nM.
As to “PP1γ, endogenous (from UniProt P36873 1-323) (enzyme)”, the values for the PP1γ co-precipitated, percent of WT GFP-RRP1B (in test [3]; with GFP-RRP1B_(RAxA) (human)) were 4.6% and 2.1%, respectively.
For “RRP1B_(682–727) F715A (from UniProt Q14684) (domain or fragment)”, the Kd in test [2] was 157 nM.

B1: RRP1B_(677–736) (domain or fragment)
chain: TPSSSKKVTFGLNRNMTAEFKKTDKSILVSPTGPSRVAFDPEQKPLHGVLKTPTSSPASS
In turn, B1 had a Kd in the test with His6-tagged PP1γ_(7–308) of 22.6 nM.
KKVTFGLNRNMTAEFKKTDKSILVSPTGPSRVAFDPEQKPLHGVLK (domain or fragment) [RRP1B_(682–727)]: binding in test [4] was put at a Kd of 22.5 nM.

B2: RRP1B_(657–758) (domain or fragment)
chain: RRAKSSTATHPPGPAVQLNKTPSSSKKVTFGLNRNMTAEFKKTDKSILVSPTGPSRVAFDPEQKPLHGVLKTPTSSPASSPLVAKKPLTTTPRRRPRAMDFF
As for B2, the Kd came to 888 nM with His6-tagged PP1α_(7–330), 17.6 nM in the test with His6-tagged PP1γ_(7–308) and 40 nM with His6-tagged PP1γ_(7–323).
In test [4], KKVTFGLNRNMTAEFKKTDKSILVSPTGPSRVAFDPEQKPLH (domain or fragment) [RRP1B_(682–723)] gave a Kd of 114 nM.

Values taken from article PMC9813921 (Cell reports, 2022).
